From US20160298128A1 (University of California, published 2016) come the findings set out here.

Experiment [1] concerns the target T1, PsbO1, photosystem II subunit (endogenous protein in Arabidopsis protein extracts) (Arabidopsis thaliana, UniProt P23321 86-332).
T1 construct: Endogenous protein; also called PSII subunit PsbO1
Briefly: Co-IP with anti-PsbO antibody and Protein A beads, immunoblot with anti-HA. For orientation: Immunoblotting shows a protein as a band on a membrane.

Experiment [2] addresses T1, PsbO1, photosystem II subunit …. Briefly: Co-IP with anti-HA magnetic beads from DEX-3 plant extracts, LC-MS/MS. As for the experimental part: Four-day-old seedlings of Col-0 and transgenic plants DEX:AtCV-HA-3 (DEX-3) were cultured in MS/2 media containing […] for 4 days and then kept in the dark for additional 2 days. The shoots of plants were harvested, ground in liquid N2 and incubated at 4° C. for 3 h with lysis buffer provided by μMACS HA Isolation Kit (Miltenyl Biotec, San Diego, Calif., USA), containing Protease Inhibitor Cocktail (Sigma-Aldrich, St. Louis, Mo., USA). Co-immunoprecipitation was performed using anti-HA magnetic beads from μMACS HA Isolation Kit (Miltenyl Biotec, San Diego, Calif., USA) and incubating the cell lysis with beads at 4° C. for 2 h. LC-MS/MS analysis was performed in Genome Center of University California, Davis, as described previously (Shipman-Roston et al. 2010, Plant Physiol 152: 1297-1308). Scaffold (version Scaffold 3) was used to validate MS/MS-based peptide and protein identification. Peptide identifications were accepted if they could be established at >80.0% probability. […]
To elucidate mechanism(s) by which AtCV disrupts chloroplasts, we identified AtCV potential interacting proteins using co-immunoprecipitation (Co-IP) and subsequent identification of interactors by LC-MS/MS (Smaczniak et al. 2012, Nat Protoc 7: 2144-2158). […] In order to confirm this interaction, we used bimolecular fluorescence complementation (BiFC).

T1 sequence (P23321 86-332 limits assumed): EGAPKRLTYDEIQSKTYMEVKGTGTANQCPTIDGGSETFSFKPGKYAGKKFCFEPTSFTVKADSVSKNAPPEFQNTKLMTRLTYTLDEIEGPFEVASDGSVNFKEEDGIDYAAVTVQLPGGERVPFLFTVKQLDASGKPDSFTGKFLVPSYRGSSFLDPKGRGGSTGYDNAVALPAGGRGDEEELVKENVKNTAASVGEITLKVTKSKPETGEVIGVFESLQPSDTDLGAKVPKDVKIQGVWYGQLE

B1: AtCVΔC-HA (AtCV without the C-terminus conserved domain, HA tagged; DEX::AtCVΔC-HA plants) (other)
chain: ASLLKTTSKISCRRTENETEPRKNKCSFVLGVAATVVIGGIQINDVASVEAAVVKSPVEEMAAGVVPPR
notes: The making of the construct is not described; not shown: HA tag
As to B1, the binding result in experiment [1] is given as “no binding”.

B2: AtCV-HA (Arabidopsis thaliana chloroplast vesiculation protein, At2G25625, fused to an HA tag; expressed from DEX:AtCV-HA, line DEX-3) (other)
chain: ASLLKTTSKISCRRTENETEPRKNKCSFVLGVAATVVIGGIQINDVASVEAAVVKSPVEEMAAGVVPPRRWSDKRTCPPWLENSLETIVPENLPRPSAHRRLELAGLAKGDAPPVGVVMTRVNRGGCFSV
notes: Expressed in planta after DEX induction; also called DEX:AtCV-HA-3; full length AtCV; not shown: HA tag from vector pBAV 154
Regarding B2, the binding result in experiment [2] is “binds”.
